B1: mouse IL-21R, His-tagged (BLI antigen) (receptor, not shown: small tags and cut ends)
chain: not shown
B2: recombinant human IL-21R His tag (Acro Biosystems) (receptor, not shown: small tags and cut ends)
chain: not shown

Target: IL-21_mouse_WT Fc fusion protein (mouse; human, UniProt Q9ES17 18-146)
Assay: BLI

Row | Binder | Kd
1 | B1 | 5.08 nM
2 | B2 | 6.38 nM

Reference: US12281147 (dated 2025)
